{"source": "paper PMC9792896", "about": "“Lack of ApoE inhibits ADan amyloidosis in a mouse model of familial Danish dementia” (The Journal of Biological Chemistry, 2022)", "proteins": {"B1": {"name": "ADan amyloid peptide (peptide)", "peptide": "EASNCFAIRHFENKFAVETLICFNLFLNSQEKHY", "notes": "34 aa amyloid peptide released by pro-protein convertases from the familial Danish dementia (FDD) mutant form of human BRI2 (ITM2B); The first 22 residues are as in wild-type BRI2; Reconstituted in hexafluoroisopropanol (1 mg/ml, 7 days), stock in dimethyl sulfoxide, diluted in PBS; also called Danish amyloid; source: synthetic peptide (ERI Amyloid Laboratory)"}}, "target": "the molecule itself", "test": "thioflavin-T aggregation assay; 30 μM peptide in PBS with 20 μM Th-T, pH 7.2, 100 μl in black 96-well nonbinding plate, 37 °C, fluorescence (ex 440 nm, em 495 nm) every 15 min for 18 h; peptide alone"}
{"protein": "B1", "values": [{"measurement": "binding result", "result": "binds"}]}
